Measurements published in patent publication US6861508B2, “Transcriptional intermediary factor-2” (Institut National de la Sante et de la Recherche Medicale, priority 1996, dated 2005).

B1: GST-mRXRα(DE) (pGEX2T-mRXRα(DE), amino acids 205-467) (receptor, mouse, UniProt P28700 205-467, looked up)
chain: MKREAVQEERQRGKDRNENEVESTSSANEDMPVEKILEAELAVEPKTETYVEANMGLNPSSPNDPVTNICQAADKQLFTLVEWAKRIPHFSELPLDDQVILLRAGWNELLIASFSHRSIAVKDGILLATGLHVHRNSAHSAGVGAIFDRVLTELVSKMRDMQMDKTELGCLRAIVLFNPDSKGLSNPAEVEALREKVYASLEAYCKHKYPEQPGRFAKLLLRLPALRSIGLKCLEHLFFFKLIGDTPIDTFLMEMLEAPHQAT
notes: range 205-467; also called GST-RXR; GST-RXRα(DE); not shown: glutathione-S-transferase (GST) of pGEX2T (Pharmacia)

What was measured:
[1] = target: T1, TIF2.1 (TIF2 amino acids 624 to 1287) (human, UniProt Q15596 624-1287); assay: Far-Western blot with 32P-labelled NR LBD probe, agonist present
T1 construct: Form without a stated tag: expression-library clone, expressed in Cos cells from pSG5, or in-vitro-translated; also called cytoplasmic TIF2.1 polypeptide
T1 sequence: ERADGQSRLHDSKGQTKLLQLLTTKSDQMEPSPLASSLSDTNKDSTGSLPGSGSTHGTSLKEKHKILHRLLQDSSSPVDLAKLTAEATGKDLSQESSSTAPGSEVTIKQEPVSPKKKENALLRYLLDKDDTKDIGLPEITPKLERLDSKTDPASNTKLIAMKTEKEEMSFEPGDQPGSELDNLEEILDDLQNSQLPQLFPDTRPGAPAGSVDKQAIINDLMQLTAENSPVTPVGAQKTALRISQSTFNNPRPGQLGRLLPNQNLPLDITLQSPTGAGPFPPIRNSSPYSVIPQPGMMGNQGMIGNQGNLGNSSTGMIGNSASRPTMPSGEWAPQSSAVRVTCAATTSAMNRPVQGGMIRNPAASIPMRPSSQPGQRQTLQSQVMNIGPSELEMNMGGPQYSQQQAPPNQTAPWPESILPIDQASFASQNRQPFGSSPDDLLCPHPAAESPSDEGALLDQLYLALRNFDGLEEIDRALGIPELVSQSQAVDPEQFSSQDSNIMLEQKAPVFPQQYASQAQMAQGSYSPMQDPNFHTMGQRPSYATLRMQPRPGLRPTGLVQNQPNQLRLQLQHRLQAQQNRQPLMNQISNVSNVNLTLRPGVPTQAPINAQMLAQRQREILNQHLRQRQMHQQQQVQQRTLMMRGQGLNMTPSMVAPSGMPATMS

[2] = target: T2, GST-hRARα(DEF) (pGEX2T-hRARα(DEF), amino acids 153-462) (human, UniProt P10276 153-462); assay: in vitro GST interaction of TIF2.1 point mutants, with ligand, relative to TIF2.1 wild type
T2 construct: range 153-462; Bacterially produced; also called GST-RAR; GST-RARα(DEF); not shown: glutathione-S-transferase (GST) of pGEX2T (Pharmacia)
T2 sequence (looked up): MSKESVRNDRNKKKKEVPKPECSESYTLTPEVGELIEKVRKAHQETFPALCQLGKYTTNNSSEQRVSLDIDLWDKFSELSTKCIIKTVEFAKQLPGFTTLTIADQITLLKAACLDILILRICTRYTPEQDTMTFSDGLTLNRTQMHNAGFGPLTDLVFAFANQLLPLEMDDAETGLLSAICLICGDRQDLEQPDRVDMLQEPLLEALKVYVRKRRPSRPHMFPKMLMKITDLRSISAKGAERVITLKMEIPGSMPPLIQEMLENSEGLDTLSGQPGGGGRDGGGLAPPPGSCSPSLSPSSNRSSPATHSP

[3] = target: B1; assay: as above
GAL4 reporter = assay: GAL4 DBD-TIF2 fusion CAT reporter transactivation assay; type: cell-based; conditions: Cos-1 and/or HeLa cells
Method: (a) HeLa cells were cotransfected with 1 μg (17m)5-βG-CAT and 10 μg GAL(1-147) or 1,3 and 10 μg GAL(1-147)-TIF2.1, respectively.
(c) Analysis of the transcriptional activity of GAL-TIF2 fusion proteins. Cos-1 and HeLa cells were transfected with 3 lag of plasmids expressing different regions of TIF2 fised to the DNA-binding domain of the yeast transcription factor GALA together with 1 μg of the (7m)5-G-CAT reporterplasmid. CAT assays were performed as described (Bocquel, M. T. et al., Nucl Acids Res. 17:2581-2595 (1989)). Quantitative data on CAT reporter expression were obtained either by phosphoimager analysis (BAS2000, Fuji) of ^14C-labeled CAT reaction products separated by thin-layer chromatography, or using the CAT ELISA Kit (Boehringer Mannheim). In all cases, CAT activities were normalized to the β-galactosidase concentrations resulting from cotransfection of 1 μg of pCMVPGal (gift from T. Lerouge) as internal control. Fold inductions above the GAL4 DBD value are indicated. The mean and standard deviation of at least three experiments are shown. A representative Western blot, illustrating the expression levels of the GAL4-TIF2 fusion proteins, expressed from 10 μg of the corresponding expression vectors, is shown on the left.
(b) Transcriptional activation of TIF2 AF-1 mutants. Cos-1 and HeLa cells were cotransfected with 3 μg of plasmids expressing different mutants of the TIF2 AF-1 fused to the DNA-binding domain of the yeast transcription factor GAL4 together with 1 μg of the (17m)5-G-CAT reporter plasmid. Fold inductions above the activation seen with the GAL4 DBD alone are indicated. The values represent the mean of at least three experiments.
(a) Transcriptional activation by TIF2.13 and TIF2.13 mutants. Cos-1 and HeLa cells were cotransfected with 3 μg of plasmids expressing the TIF2.13 region and the indicated TIF2.13 mutants fused to the DNA-binding domain of the yeast transcription factor GALA together with 1 μg of the (17m)5-G-CAT reporter plasmid. Fold inductions above the GAL4 DBD 1-fold value are indicated. The mean and standard deviation obtained from at least four experiments are shown. The expression levels of the GAL4-TIF2.13 fusion proteins were confirmed by western blotting (data not shown).
Transient transfections of HeLa and Cos-1 cells were performed as described (Gronemeyer et al., (1987); Bocquel, M. T. et al., Nucl. Acids Res. 17:2581-2595 (1989)).

ER, RARα and RXRα LBDs = assay: GST pull-down of TIF2 polypeptides with NR LBDs; type: binding; conditions: in vitro, with or without 10^−6 M ligand
Method: (b) Mapping of the nuclear receptor-interacting domain of TIF2.
(c-d) Interaction of TIF2 NID mutants with NRs in vitro. […] For quantification of point mutant interactions, see below.
(e-f) Effect of TIF2 NID point mutations on stimulation of NR AF-2 activity. Cos-1 cells were cotransfected with 1 μg of the (17m)5-TATA-CAT reporter, 0.2 μg of GAL-hERα(EF) or GAL-mRXRα(DE), and 2.5 μg of the TIF2.1 wildtype or mutated fragments, as indicated. […] Each bar represents the mean value obtained from at least three (interaction) or at least four (transactivation) experiments, respectively; standard deviations are indicated. Note that the absolute values for TIF2.1 wildtype activity varied by ±16% when cotransfected with GAL-hERα(EF) and by ±34% when cotransfected with GAL-mRXRα(DE). In the in-vitro-interaction assays, the affinity of the TIF2.1 wildtype standard varied by less than ±25%. Expression levels of TIF2 mutants in the cells were verified by Western blot (not shown) with mouse monoclonal antibody 3Ti3F1, which is directed against an epitope outside the mutated area.
To further delineate the TIF2 NR interaction domain (NID), we studied the interaction between a series of TIF2 deletion mutants and the ER or RARα LBDs, using GST-fusion protein-based in vitro assays. In both cases, an NWD was mapped to the central region of TIF2 (amino acids 624-869 in mutant TIF2.5; see FIGS. 7a and b). No additional NWD could be identified in the N- or C-termini of TIF2 (FIGS. 7a and b; mutants TIF2.0, TIF2.2 and TIF2.7). Note that, in contrast, SRC-1, a paralogue of TIF2, apparently harbours two distinct non-contiguous NIDs located in the central and C-terminal regions (Onate, S. A. et al., Science 270:1354-1357 (1995), Yao, T. P. et al., Proc. Natl. Acad. Sci. USA 93:10626-10631 (1996); Zhu, Y. et al., Gene Epression 6:185-195 (1996)).

B1
binding result [1]: binds

B2: TIF2.1 m12 (LL→AA in NR box motifs I and II) (other)
chain: ERADGQSRLHDSKGQTKLLQAATTKSDQMEPSPLASSLSDTNKDSTGSLPGSGSTHGTSLKEKHKILHRAAQDSSSPVDLAKLTAEATGKDLSQESSSTAPGSEVTIKQEPVSPKKKENALLRYLLDKDDTKDIGLPEITPKLERLDSKTDPASNTKLIAMKTEKEEMSFEPGDQPGSELDNLEEILDDLQNSQLPQLFPDTRPGAPAGSVDKQAIINDLMQLTAENSPVTPVGAQKTALRISQSTFNNPRPGQLGRLLPNQNLPLDITLQSPTGAGPFPPIRNSSPYSVIPQPGMMGNQGMIGNQGNLGNSSTGMIGNSASRPTMPSGEWAPQSSAVRVTCAATTSAMNRPVQGGMIRNPAASIPMRPSSQPGQRQTLQSQVMNIGPSELEMNMGGPQYSQQQAPPNQTAPWPESILPIDQASFASQNRQPFGSSPDDLLCPHPAAESPSDEGALLDQLYLALRNFDGLEEIDRALGIPELVSQSQAVDPEQFSSQDSNIMLEQKAPVFPQQYASQAQMAQGSYSPMQDPNFHTMGQRPSYATLRMQPRPGLRPTGLVQNQPNQLRLQLQHRLQAQQNRQPLMNQISNVSNVNLTLRPGVPTQAPINAQMLAQRQREILNQHLRQRQMHQQQQVQQRTLMMRGQGLNMTPSMVAPSGMPATMS
notes: also called single intact NR box III
times less efficient in NR interaction than the wild-type TIF2 [2]: 20 times less efficient than wild type
times less efficient in NR interaction than the wild-type TIF2 [3]: 20 times less efficient than wild type

B3: TIF2.15: TIF2.13 with removal of 26 C-terminal amino acid residues (protein, UniProt Q15596 1011-1096, looked up, fragment)
chain: PSELEMNMGGPQYSQQQAPPNQTAPWPESILPIDQASFASQNRQPFGSSPDDLLCPHPAAESPSDEGALLDQLYLALRNFDGLEEI
transcriptional activation of GAL4 reporter by GAL4 DBD fusion (GAL4 reporter): reduced transcriptional activity only weakly

B4: TIF2.34: TIF2.5 C-terminally truncated to Pro775 (protein)
chain: MKLLSSIEQACDICRLKKLKCSKEKPKCAKCLKNNWECRYSPKTKRSPLTRAHLTEVESRLERLEQLFLLIFPREDLDMILKMDSLQDIKALLTGLFVQDNVNKDAVTDRLASVETDMPLTLRQHRISATSSSEESSNKGQRQLTVSERADGQSRLHDSKGQTKLLQLLTTKSDQMEPSPLASSLSDTNKDSTGSLPGSGSTHGTSLKEKHKILHRLLQDSSSPVDLAKLTAEATGKDLSQESSSTAPGSEVTIKQEPVSPKKKENALLRYLLDKDDTKDIGLPEITPKLERLDSKTDP
binding to NRs (ER, RARα LBDs) (ER, RARα and RXRα LBDs): interacted with ER and RARα LBDs in a ligand-dependent manner

B5: TIF2.18: TIF2.13 with removal of 20 N-terminal amino acid residues (protein, UniProt Q15596 1031-1122, looked up, fragment)
chain: NQTAPWPESILPIDQASFASQNRQPFGSSPDDLLCPHPAAESPSDEGALLDQLYLALRNFDGLEEIDRALGIPELVSQSQAVDPEQFSSQDS
transcriptional activation of GAL4 reporter by GAL4 DBD fusion (GAL4 reporter): reduced transcriptional activity only weakly
